Test results published in the DeepSol protein solubility set.

Assay: soluble on expression in E. coli; label from the status in PepcDB or PDB records

| Sequence | soluble on expression in E. coli |
| --- | --- |
| MTAYGFIIPVFNHPHYLDQLVETLSRYQLPMILVNDGSNEECSTKLRVLDQSYTQVHLVEHAYNQGKGQAVITGLHYADQLGLSHALQIDCDGQHQWADVEQFLQLSQQYPEKVIIGQPIFDASIPKKRLYGRYLTHVWVWINSLSFEIKDSMCGFRVYPLGPTLKVIKQAKFQPRMGFDSEILVRLKWENLAFINVPTAVIYPEHGILEHHHHHH | not soluble |
| MDTAGDTKTTDDGGVVNITYMHRLPDSEGMTLVNDIVAKWNKQHPDIQVKATKFDGKASDMIKKLETDVKSGEAPDLAQVGYAELPEVFTKGLLQDVTQYAEQYKNDFASGPYSLVQVGGKAYGLPQDTGPLVYFYNKAEFEKLGITEIPQTADEFIAAAKTAAAAGKYIMSYQPDEAGNMISGLAGASGGWYKVKGDSWVVNTETDGSKATADFYQQLLDAKAATTNPRWDPSFDASIKDGSLIGTVAAAWEAPLFMTSSGGTGSGEWQVAQLGDWFGNAGKTGPDGGSAVAVLKNSKHPKEAMEFLDWFNTQVPDLVSQGLVPAATTEDAETPSEWSTFFGGQDIMKEFKTANNNMGDFTYMPGFSAVAAKMNETAAKATDGSGKVADIFSDAQTTSVDTLKNFGLSVSE | soluble |
| MGSDKIHHHHHHMTALSSVDFCLPEHITPEIFLRDYWQKKPLVIRNGLPEIVGQFEPQDIIELAQNEDVTARLVKTFSDDDWKVFFSPLSEKDFQKLPEKWSVLVQNLEQWSPELGQLWNKFGFIPQWQRDDIMVSYAPKGGSVGKHYDEYDVFLVQGYGHRRWQVGKWCDASTEFKPNQSIRIFDDMGELVIDEVMNPGDILYIPARMAHYGVAEDDCLTFSFGLRYPNLSNLIDGISKGFCHQDPDLNLSEFDLPLRLSQSEQRTGKLADENIQAMKQLLLDKLAHSEAFDTLFKQAVASAVSSRRYELLVSDEMCDPDEVRSILEEDGAFLSQDNNCKLLYTENPLRIYANGEWLDELNIIESEVLKRLSDGESLDWAFLSDLANKTEDPETSMDLLLDSICNWVDDGWALIE | not soluble |
| MGSDKIHHHHHHMYDLQELEAFVSVVRTGSLTASTRDLGLPKSTLSRRIRQLEENVGQPLLLRQSRKIVPNDAGRVFYRYCNDILELVVQGREALDELKAEVTGKLELRCHESFVRGWFSGVVESFMADHDDLRVAIHTQRNLPEAVEDGVCIWLGETGETALRQEVLGVLKQGIFGSPAYFRQHGKPAAPGELAHHPWVDLLGMADTGVILHHSRQGNFPLSLPDRRFTVDQFNVQGDAIAAGRGLGLMPVWLVERRLTAHPGSFQSCLPEWYGPDLPVTLLYPHGVLPRRVRAFIAHLRSCIPEEWTGGGGTATQAVPKSGTHHSNT | not soluble |
| MEHDERTHVPVELRAAGVVLLNERGDILLVQEKGIPGHPEKAGLWHIPSGAVEDGENPQDAAVREACEETGLRVRPVKFLGAYLGRFPDGVLILRHVWLAEPEPGQTLAPAFTDEIAEASFVSREDFAQLYAAGQIRMYQTKLFYADALREKGFPALPV | soluble |
| MLTISNQVQLADWEIELTAIRAQGAGGQNVNKVSSAIHLRFDISRSTLPAFYKERLLKMRDHRITKEGIIIIKAQQFRTQEKNREDALDRLKQLIQSATETQKARKETKPTRSSQHKRMDKKSQRGQTKSMRKKVDYLEHHHHHH | soluble |
| MGSDKIHHHHHHMKPIDIKENKNPVESAQFGKTQDEPLSDKTHVQISDEATQWLLTIEEDDSENNQQALNAWLSLSAQHKKVYQQLQTLWEVADELPVDLFSEDLLGLSMTPSSAVNTSSRVNPYALKKESILAKFISFFTLRKTMYTASFASVIFATFITFTQYNREMVTTDKPLQVASSSTLRTNEYQTKLGEHKTITAQDGSIIVLAAKSQVFIDYSANRRDIHLLYGEALFTVEKDKERPFIVHNHGRSVQALGTIFNVRESKSAMQVSVLEGIVEVNVEPEVKSKVTNSSDKNQVATLVAGQALELDSLGQFSTTYAIEVNERMAWQDGRLNYVNTDLANVIFDLKRYSTLSIHIPNKQVANMGYTGSVIYDKVDDWLIALPYIFPVEVQRHGNSVVIVKRKE | not soluble |
| NPNPISIPIDLSQAGSVVEKEVKIEESWSYHLILQFAVHDRKEDGGLDGKRVWKFLGFNSYDPRDGKQVGYVDYRLAKSELGDLIDETYDCDGTVVPIKITIHQINQDNTKKLIADNLYMTKGNGSGAYTRDITTISLDKGKYIFRIENIEAFSEMIGRKVDFTIYINKRDK | soluble |
| MSLVGNMNREALFKTLTTGYLHFWSLSRKKLWLKGETSGNFQIIEEFKVDCDADAVLFKVTSLGPICHTGNYTCFYRSYDELVNSKSEGHHHHHH | not soluble |
| TTQNELLNRIAELETKVAFQDNVIEELNQVLIHHQFVLDKLQTQVRHFANKFKNIQSSNVASQAEETPPPHY | not soluble |
